The term % Inhibition denotes the drop in the measured response relative to a control, in per cent. As usually defined, the Kd is the free concentration of one partner at which half of the binding sites on the other are occupied at equilibrium, for simple one-to-one binding. The low end stands for tighter binding, the high end for weaker binding.

12 molecules from patent US20200055939A1 (Genentech, published 2020) can be followed below.

Experiment [1] has as its target T1, MICA*008 on MEL-JUSO cells (human, UniProt Q29983 24-317).
T1 chain: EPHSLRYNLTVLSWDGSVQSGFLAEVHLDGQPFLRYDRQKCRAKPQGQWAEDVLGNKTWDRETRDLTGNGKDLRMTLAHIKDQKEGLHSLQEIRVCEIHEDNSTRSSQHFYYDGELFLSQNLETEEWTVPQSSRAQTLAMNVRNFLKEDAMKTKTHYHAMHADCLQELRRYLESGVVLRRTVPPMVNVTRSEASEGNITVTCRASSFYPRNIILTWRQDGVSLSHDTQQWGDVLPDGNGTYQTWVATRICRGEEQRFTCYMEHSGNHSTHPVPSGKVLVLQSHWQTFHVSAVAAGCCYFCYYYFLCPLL
Nature of the experiment: cell-based or functional assay.

For experiment [2], the target named is MICA*004 on HCC1534 cells (human, UniProt Q29983 24-383). Nature of the experiment: cell-based or functional assay.
Experiment [3] addresses MICB*005 on HCC1534 cells (human). In words: cell-based or functional assay.
Another experiment concerns the target T2, huMICA*002 alpha 3-his (human).
T2 construct: whole construct entry: GS, alpha 3 domain, GNS, His8; also called MICA002.His; MICA*002 alpha3 construct
T2 chain: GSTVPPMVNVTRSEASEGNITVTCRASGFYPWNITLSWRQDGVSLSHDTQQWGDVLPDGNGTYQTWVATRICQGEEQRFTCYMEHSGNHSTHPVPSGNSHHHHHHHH
In words: SPR, Biacore 8K, antibody on Protein A chip. Background: SPR reads the build-up and loss of mass on a sensor chip optically.

The target in the next experiment is T3, huMICA*004 alpha 3-his (human).
T3 construct: whole construct entry: GS, alpha 3 domain, GNS, His8; also called MICA004.His; MICA*004 alpha3 construct
T3 chain: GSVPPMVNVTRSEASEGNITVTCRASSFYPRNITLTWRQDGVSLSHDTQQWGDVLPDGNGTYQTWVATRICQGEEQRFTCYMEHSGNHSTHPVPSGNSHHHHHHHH
Nature of the experiment: SPR, Biacore 8K, antibody on Protein A chip.

In a further experiment the target is T4, huMICA*008 alpha 3-his (human).
T4 construct: whole construct entry: GS, alpha 3 domain (Thr204-Ser297), GNS, His8; also the construct of the FPOP experiment; also called MICA008.His; MICA*008 alpha3 construct
T4 chain: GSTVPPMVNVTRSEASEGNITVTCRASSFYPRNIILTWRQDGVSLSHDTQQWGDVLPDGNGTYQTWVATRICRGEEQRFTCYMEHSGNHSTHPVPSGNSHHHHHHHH
In words: SPR, Biacore 8K, antibody on Protein A chip.

The target in another experiment is T5, huMICB*005 alpha 3-his (human).
T5 construct: whole construct entry: GS, alpha 3 domain, GNS, His8; also called MICB005.His; MICB*005 alpha3 construct
T5 chain: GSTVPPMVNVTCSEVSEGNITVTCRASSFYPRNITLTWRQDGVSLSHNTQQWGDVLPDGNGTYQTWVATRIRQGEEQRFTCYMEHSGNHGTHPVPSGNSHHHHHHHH
In words: SPR, Biacore 8K, antibody on Protein A chip.

Procedure for huMICA*002 alpha 3-his: (§1) A Protein A sensorchip (GE Healthcare) was used following manufacturer provided protocols to capture humanized anti-MICA/B antibodies. The MICA/B alleles were passed over. Antibody binding was measured to human MICA 002, 004, 008 and MICB 005 alpha 3 domains (His tagged, in-house). Sensograms for binding of MICA/B were recorded using an injection time of 2 minutes with a flow rate of 30 ml/min, at a temperature of 25° C., and with a running buffer of 10 mM HEPES, pH 7.4, 150 mM NaCl, 3mM EDTA, and 0.005% Tween 20. After injection, disassociation of the alpha 3 domain from the antibody was monitored for 10 minutes in running buffer. The surface was regenerated between binding cycles with a 60 ul injection of 10 mM Glycine HCl pH 1.5. […] The data was analyzed using a 1:1 binding model. Sensograms of MICA alleles binding to captured anti-MICA antibody were used to calculate the dissociation constant (Kd).
Procedure for huMICA*004 alpha 3-his: as §1
Procedure for huMICA*008 alpha 3-his: as §1
Procedure for huMICB*005 alpha 3-his: as §1

B1: 15F11 (antibody, V domains shown)
VH: EIQLQQSGPELVKPGASVRVSCKPSGYAFTSNNIYWVKQSRRKSLEWIGYIDPYIGRIIYNQQFKDKATLTVDKSSSTAYMHLNSLTSEDSAVYYCSRSGERSNFDYWGQGTTLTVSS
VL: EIVLTQSPTAMAASPGEKITITCSASSSISSNYLHWYQQKPGFSPKLLIYRTSNLASGVPARFSGSGSGTSYSLTIGPMEAEDVATYYCQQGGSLPLTFGAGTKVEIK
notes: mouse variable domains
Regarding B1, the “% Inhibition” value in experiment [1] worked out at 50%; in experiment [2], 54%; in experiment [3], 43%. The equilibrium dissociation constant (Kd) with huMICA*002 alpha 3-his was 2.21 nM; in the experiment with huMICA*004 alpha 3-his, 1.31 nM; with huMICA*008 alpha 3-his, 0.79 nM; in the experiment with huMICB*005 alpha 3-his, 2.28 nM.

B2: 15F11 (m IgG2a, CHO) (antibody, V domains shown)
VH: EIQLQQSGPELVKPGASVRVSCKPSGYAFTSNNIYWVKQSRRKSLEWIGYIDPYIGRIIYNQQFKDKATLTVDKSSSTAYMHLNSLTSEDSAVYYCSRSGERSNFDYWGQGTTLTVSS
VL: EIVLTQSPTAMAASPGEKITITCSASSSISSNYLHWYQQKPGFSPKLLIYRTSNLASGVPARFSGSGSGTSYSLTIGPMEAEDVATYYCQQGGSLPLTFGAGTKVEIK
For the molecule B2, the “% Inhibition” value in experiment [1] was determined as 69%; in experiment [2] it was 60%; in experiment [3], 57%.

B3: 1D5 (m IgG2a, CHO) (antibody, V domains shown)
VH: EIQLQQSGPELVKPGASVKVSCKASGYAFTSQNIYWVKQSHGKSLEWIGYIEPYNVVPMYNPKFKGKATLTVDKSSSSAYIHLNSLTSEDSAIYYCARSGSSNFDYWGQGTTLTVSS
VL: EIILTQSPTTMAASPGEKITITCSASSSISSHYLHWYQQKSGFSPKLLIYRTSNLASGVPARFSGSGSGTSYSLTIGTMEAEDVATYYCQQGSSLPLTFGAGTKVEIK
Regarding B3, the figures for the “% Inhibition” value in experiment [1], in experiment [2] and in experiment [3] were 74%, 59% and 76%, respectively.

B4: 13A9 (antibody, V domains shown)
VH: QVQLQQSGAELVRPGTSVKVSCKASGYAFTNYLIEWVKQRPGQGLEWIGAINPGSGATNYNEKFKDKARLTADKSSNTAYLQFSSLTSDDSAVYFCARFLGNYFDNWGQGATLTVSS
VL: DIQMTQSPASLSASVGETVTITCRASGNIHSYLAWYQQKQGKSPQLLVYYAETLADGVPSRFSGRGSGTQYSLKINSLQPEDFGSYFCQQFWTTPYTFGGGTKVEIK
notes: mouse variable domains
As for B4, the “% Inhibition” value in experiment [1] is -7%; in experiment [2], 21%; in experiment [3], 61%. Besides, the Kd worked out at 4.82 nM with huMICA*002 alpha 3-his, 6.77 nM with huMICA*004 alpha 3-his, 2.35 nM with huMICA*008 alpha 3-his and 2.35 nM in the experiment with huMICB*005 alpha 3-his.

B5: 13A9 (m IgG2a, CHO) (antibody, V domains shown)
VH: QVQLQQSGAELVRPGTSVKVSCKASGYAFTNYLIEWVKQRPGQGLEWIGAINPGSGATNYNEKFKDKARLTADKSSNTAYLQFSSLTSDDSAVYFCARFLGNYFDNWGQGATLTVSS
VL: DIQMTQSPASLSASVGETVTITCRASGNIHSYLAWYQQKQGKSPQLLVYYAETLADGVPSRFSGRGSGTQYSLKINSLQPEDFGSYFCQQFWTTPYTFGGGTKVEIK
Regarding B5, the entries for the “% Inhibition” value in experiment [1], in experiment [2] and in experiment [3] were 29%, 34% and 60%, respectively.

B6: 1D5v1 (antibody, IgG1, V domains shown)
VH: EIQLVQSGAEVKKPGASVKVSCKASGYAFTSQNIYWVRQAPGQGLEWIGYIEPYNVVPMYNPKFKGRATLTVDKSTSTAYMELRSLRSDDTAVYYCARSGSSNFDYWGQGTLVTVSS
VL: EIVLTQSPDFQSVTPKEKVTITCSASSSISSHYLHWYQQKPDQSPKLLIYRTSNLASGVPSRFSGSGSGTDYTLTINSLEAEDAATYYCQQGSSLPLTFGQGTKVEIK
notes: humanized variant of 1D5; also called lD5v1
B6: the “% Inhibition” value was found to be 52% in experiment [1], 54% in experiment [2] and 41% in experiment [3]. The dissociation constant Kd was 1.4 nM with huMICA*002 alpha 3-his, 1.17 nM with huMICA*004 alpha 3-his, 0.96 nM in the experiment with huMICA*008 alpha 3-his and 1.96 nM with huMICB*005 alpha 3-his.

B7: 1D5v14 (antibody, IgG1, V domains shown)
VH: EVQLVQSGAEVKKPGASVKVSCKASGYAFTSQNIYWVRQAPGQGLEWMGYIEPYNVVPMYNPKFKGRVTMTTDTSTSTAYMELRSLRSDDTAVYYCARSGSSNFDYWGQGTLVTVSS
VL: DIQMTQSPSSLSASVGDRVTITCSASSSISSHYLHWYQQKPGKAPKLLIYRTSNLASGVPSRFSGSGSGTDFTLTISSLQPEDFATYYCQQGSSLPLTFGQGTKVEIK
notes: humanized variant of 1D5; also called 1D5v14 second data point
For B7, the equilibrium dissociation constant (Kd) came out at 1.62 nM with huMICA*002 alpha 3-his, 1.23 nM in the experiment with huMICA*004 alpha 3-his, 1.16 nM with huMICA*008 alpha 3-his and 2.14 nM in the experiment with huMICB*005 alpha 3-his.

B8: 1D5v4 (antibody, IgG1, V domains shown)
VH: EVQLVQSGAEVKKPGASVKVSCKASGYAFTSQNIYWVRQAPGQGLEWIGYIEPYNVVPMYNPKFKGRVTITRDTSTSTAYLELSSLRSEDTAVYYCARSGSSNFDYWGQGTLVTVSS
VL: EIVLTQSPDFQSVTPKEKVTITCSASSSISSHYLHWYQQKPDQSPKLLIYRTSNLASGVPSRFSGSGSGTDYTLTINSLEAEDAATYYCQQGSSLPLTFGQGTKVEIK
notes: humanized variant of 1D5
B8: the “% Inhibition” value turned out to be 43% in experiment [1], 46% in experiment [2] and 34% in experiment [3]. Also, the equilibrium dissociation constant (Kd) with huMICA*002 alpha 3-his worked out at 6.63 nM; in the experiment with huMICA*004 alpha 3-his, 6.2 nM; with huMICA*008 alpha 3-his, 7.45 nM; with huMICB*005 alpha 3-his it was 16.2 nM.

B9: 1D5v2 (antibody, IgG1, V domains shown)
VH: EVQLVQSGAEVKKPGASVKVSCKASGYAFTSQNIYWVRQAPGQGLEWMGYIEPYNVVPMYNPKFKGRVTMTTDTSTSTAYMELRSLRSDDTAVYYCARSGSSNFDYWGQGTLVTVSS
VL: EIVLTQSPDFQSVTPKEKVTITCSASSSISSHYLHWYQQKPDQSPKLLIYRTSNLASGVPSRFSGSGSGTDYTLTINSLEAEDAATYYCQQGSSLPLTFGQGTKVEIK
notes: humanized variant of 1D5
As for B9, the “% Inhibition” value in experiment [1] stood at 33%; in experiment [2], 38%; in experiment [3] it was 26%. Besides, the Kd turned out to be 1.69 nM with huMICA*002 alpha 3-his, 1.34 nM with huMICA*004 alpha 3-his, 0.89 nM in the experiment with huMICA*008 alpha 3-his and 2.69 nM with huMICB*005 alpha 3-his.

B10: 1D5v3 (antibody, IgG1, V domains shown)
VH: EIQLVQSGAEVKKPGASVKVSCKASGYAFTSQNIYWVRQAPGQGLEWIGYIEPYNVVPMYNPKFKGRATLTVDKSTSTAYLELSSLRSEDTAVYYCARSGSSNFDYWGQGTLVTVSS
VL: EIVLTQSPDFQSVTPKEKVTITCSASSSISSHYLHWYQQKPDQSPKLLIYRTSNLASGVPSRFSGSGSGTDYTLTINSLEAEDAATYYCQQGSSLPLTFGQGTKVEIK
notes: humanized variant of 1D5
In the case of B10, the figures for the “% Inhibition” value in experiment [1], in experiment [2] and in experiment [3] were 50%, 56% and 38%, respectively. Moreover, the Kd in the experiment with huMICA*002 alpha 3-his stood at 1.21 nM; with huMICA*004 alpha 3-his, 0.96 nM; with huMICA*008 alpha 3-his, 0.85 nM; in the experiment with huMICB*005 alpha 3-his, 1.78 nM.

B11: 1D5v5 (antibody, IgG1, V domains shown)
VH: EIQLVQSGAEVKKPGASVKVSCKASGYAFTSQNIYWVRQAPGQGLEWIGYIEPYNVVPMYNPKFKGRATLTVDKSTSTAYMELRSLRSDDTAVYYCARSGSSNFDYWGQGTLVTVSS
VL: EIVLTQSPDFQSVTPKEKVTITCSASSSISSHYLHWYQQKPDQSPKLLIKRTSNLASGVPSRFSGSGSGTDFTLTINSLEAEDAATYYCQQGSSLPLTFGQGTKVEIK
notes: humanized variant of 1D5
Consider B11, for which the “% Inhibition” value in experiment [1] is 36%; in experiment [2], 39%; in experiment [3], 32%. The Kd in the experiment with huMICA*002 alpha 3-his turned out to be 2.59 nM; with huMICA*004 alpha 3-his, 2.13 nM; with huMICA*008 alpha 3-his it was 1.64 nM; with huMICB*005 alpha 3-his it was 3.99 nM.

B12: 6E1 (m IgG2a, CHO) (antibody, V domains shown)
VH: QGQMQQSGAELVKPGASVKLSCKTSGFTFSDNYISWLKQKPGQSLEWIAWIYAGTGGSSYNQKFRDKAQLTVDTSSRTAYMQLSSLTTEDSAIYYCARHDYYGTSGAWFAYWGRGTLVTVSA
VL: DVLMTQTPLSLPVSLGDQASISCRSSQHIVHSNENTYLEWYLQKPGQSPKLLIYKVSNRFSGVPDRFSGSGSGTDFTLKISRVEAEDLGVYYCFQGSHVPWTFGGGTKVEIK
For the molecule B12, the “% Inhibition” value came out at 36% in experiment [1], 40% in experiment [2] and 47% in experiment [3].
